Patent publication US8445633B2, “Peptide having bindability with adiponectin, analysis method utilizing same peptide, and analysis device utilizing same peptide” (Sharp Kabushiki Kaisha, priority 2010, dated 2013)

Tests used:
[1] = target: T1, adiponectin (Homo sapiens, UniProt Q15848); assay: Bond between adiponectin immobilized onto a microplate and biotin-tagged peptide, enzyme immunoassay (HRP-tagged streptavidin, TMB); type: binding; settings: Example 2, FIG. 4; for absorbance at 450 nm: 1 mM peptide with C-terminal lysine tagged with biotin, compared with peptide of SEQ ID NO. 17 (Comparative Example 2); for bindability with adiponectin: conclusion from absorbance
T1 construct: purchased R&D Systems
T1 sequence (Q15848 19-244): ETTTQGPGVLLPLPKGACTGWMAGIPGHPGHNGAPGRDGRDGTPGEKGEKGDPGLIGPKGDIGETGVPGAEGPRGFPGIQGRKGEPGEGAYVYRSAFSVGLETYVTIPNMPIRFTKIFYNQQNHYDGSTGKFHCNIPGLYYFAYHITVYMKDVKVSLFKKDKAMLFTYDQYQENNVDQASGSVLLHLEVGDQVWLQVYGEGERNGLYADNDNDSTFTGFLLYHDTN
Description: As described below, the bond between adiponectin immobilized onto a microplate and each of peptides tagged with biotin (biotin-tagged peptide) was measured by using enzyme immunoassay.
First, peptides were prepared in such a manner that lysine was added to the C-terminal of each of peptides having amino-acid sequences represented by SEQ ID NOs: 14 and 15. Then, the amino group of a lysine side chain of each of the peptides thus prepared was tagged with biotin so that biotin-tagged peptides were prepared.
5 μg/mL adiponectin (R&D Systems) prepared with PBS was dispensed to wells of a 96-well microplate in an amount of 100 μL per well. Then, the peptides were incubated for 1 hour at 37° C. Adiponectin was thus immobilized in the wells. In order to inhibit nonspecific binding, a blocking solution (Protein-Free Blocking Buffer, PIERCE) was then added to the wells in an amount of 300 μL per well. Then, the peptides were incubated for 2 hours at room temperature. Then, the wells were washed three times with PBST (PBS containing 0.1% (v/v) Tween 20). Then, 1 mM biotin-tagged peptide was added to the wells in an amount of 100 μL per well. Then, the peptides were incubated for 1 hour at room temperature. Then, the wells were washed with PBST again.
Then, HRP-tagged streptavidin (R&D Systems) diluted with 200 parts of the blocking solution (Protein-Free Blocking Buffer, PIERCE) was added to the well in an amount of 100 μL per well. Then, the streptavidin was incubated for 1 hour at room temperature. Then, the wells were washed with PBST. Then, TMB (tetramethylbenzidine) was added to the wells in an amount of 100 μL per well so that they react with each other for 20 minutes. Then, the reaction was stopped by adding 1 M of HCL to the wells in an amount of 100 μL per well. Then, an absorbance at 450 nm was measured by use of a microplate reader (Bio-Rad).
The bond between a peptide having the amino-acid sequence represented by SEQ ID NO. 17 and adiponectin as in Example 2.

[2] = target: T1, adiponectin; assay: Bond between peptide spot-synthesized on cellulose membrane and adiponectin, sandwich enzyme immunoassay (HRP-tagged anti-adiponectin antibody, Amplex Red fluorescence); type: binding; settings: Example 3, FIG. 5; for bindability with adiponectin: conclusion from fluorescent intensity; for fluorescent intensity in the synthesis spot: peptides with conservative substitution compared with parent peptides SEQ ID NOs: 8 and 9
Description: In order to identify an amino-acid sequence having bindability with adiponectin, a peptide was synthesized on a cellulose membrane by use of a peptide synthesis device (Model MultiPep RS (Intavis AG)) utilizing a Fmoc-based peptide spot synthesis.
Immobilized on the cellulose membrane was polyethylene glycol having a terminal modified with an amino group. An Fmoc amino acid was bound with the amino group by using DIC (diisopropylcarbodiimide)/HOBt (hydroxybenzotriazole). After that, Fmoc was removed.
The cycle of the removal of Fmoc and the subsequent binding was repeated to synthesis a peptide. Then, N-terminals and side chains of all the peptides were deprotected. Thereby, peptides consisting of amino-acid sequences represented by SEQ. ID NOs: 1 to 15 were obtained.
The sandwich technique which is one of enzyme immunoassays was performed to measure the bond between each of the peptides thus synthesized and adiponectin.
First, a cellulose membrane was soaked in ethanol. Then, the cellulose membrane was continuously washed with phosphate buffered saline (PBS) (pH 7.4) so that ethanol contained in the cellulose membrane was replaced with PBS. In order that nonspecific binding is inhibited, the cellulose membrane was incubated overnight in a blocking solution (PBS containing 1% milk powder).
Then, the cellulose membrane was incubated for 1 hour in a blocking solution (PBS containing 1% milk powder) which contains 0.25 μg/mL human adiponectin (R&D Systems). Then, the cellulose membrane was washed with PBST (PBS containing 0.1% (v/v) Tween 20). Then, the cellulose membrane was incubated for 1 hour in a blocking solution containing […] anti-human adiponectin antibody (R&D Systems) which is tagged with HRP, and then washed with PBST five times.
After that, 100 μM fluorescent substrate (Amplex Red (Invitrogen)) containing 1 mM hydrogen peroxide was added to the cellulose membrane, and then they react with each other for 10 minutes. A fluorescent intensity in a synthesis spot was measured in such a manner that an […] wavelength of 595 nm of fluorescence from the fluorescent substrate was measured by a fluorescence imager (GE Healthcare) by exciting, with light of 540 nm, the fluorescent substrate in the synthesis spot. A bond strength of the peptide was worked out from the fluorescent intensity in the synthesis spot.
A peptide consist of the amino-acid sequence represented by SEQ ID NO. 16 was synthesized as in Example 1. Then, the bond between the synthesized peptide and adiponectin was measured as in Example 1.
Then, the bond between each of the synthesized peptides and adiponectin was measured as in Example 1.

absorbance at 450 nm [1] | bindability with adiponectin [1] | bindability with adiponectin [2] | Substance | fluorescent intensity in the synthesis spot [2]
significantly higher in absorbance | had the bindability with adiponectin | – | 15 (ILLPLRIN; Adiponectin binding peptide) [compound 15] | –
– | – | had the bindability with adiponectin | 18 (MGSFVPY; Adiponectin binding peptide) [compound 18] | close to those of the peptides having the amino-acid sequences represented by SEQ ID NOs: 8 and 9
significantly higher in absorbance | had the bindability with adiponectin | – | 14 (ITPIHWVK; Adiponectin binding peptide) [compound 14] | –
– | – | had the bindability with adiponectin | 19 (KFATPKHR; Adiponectin binding peptide) [compound 19] | close to those of the peptides having the amino-acid sequences represented by SEQ ID NOs: 8 and 9
